{"source": "patent US20260242419A1", "about": "“A CYCLIC PEPTIDE FOR TRAPPING INTERLEUKIN-1 BETA” (Merck Sharp & Dohme LLC, priority 2023, published 2026)", "note": "Starred links: 1 amine or outer side, 2 acyl side, 3 side chain; linkers in the order of their positions; H or OH if unused. Non-standard residues stand in square brackets, D forms with d. dProc3CH2Pyrim = (2R,3S)-3-(pyrimidin-5-ylmethyl)pyrrolidine-2-carboxylic acid, O=C([C@H]1[C@@H](Cc2cncnc2)CCN1[*:1])[*:2]; TyrEtNAc = (2S)-3-[4-(2-acetamidoethoxy)phenyl]-2-amino-propanoic acid, CC(=O)NCCOc1ccc(C[C@H](N[*:1])C(=O)[*:2])cc1; dProc3Bn = (2R,3S)-3-benzylpyrrolidine-2-carboxylic acid, O=C([C@H]1[C@@H](Cc2ccccc2)CCN1[*:1])[*:2]; dProc4Bn = (2R,4R)-4-benzylpyrrolidine-2-carboxylic acid, O=C([C@H]1C[C@@H](Cc2ccccc2)CN1[*:1])[*:2]; Phe(4-(5-CO2H-2-pyrimidyl)) = N[C@@H](Cc1ccc(-c2ncc(C(=O)O)cn2)cc1)C(=O)O; Trp(βS-Me,4-F) = C[C@@H](c1c[nH]c2cccc(F)c12)[C@H](N)C(=O)O; 3Aminoazetidine3carboxyl = O=C(C1(N[*:1])CN([*:3])C1)[*:2]; Bip(4'-COOH) = N[C@@H](Cc1ccc(-c2ccc(C(=O)O)cc2)cc1)C(=O)O; Ala(1-bicyclo(1.1.1)pentyl) = N[C@@H](CC12CC(C1)C2)C(=O)O; dPro(4R-Bzl(4-F)) = O=C(O)[C@H]1C[C@@H](Cc2ccc(F)cc2)CN1; Ala(pyrimidin-5-yl) = N[C@@H](Cc1cncnc1)C(=O)O; Phe(4-COOH) = N[C@@H](Cc1ccc(C(=O)O)cc1)C(=O)O; Pro(cis-4-F) = O=C(O)[C@@H]1C[C@H](F)CN1; 2Pal = N[C@@H](Cc1ccccn1)C(=O)O; 3Pal = N[C@@H](Cc1cccnc1)C(=O)O; 4Pal = N[C@@H](Cc1ccncc1)C(=O)O; Orn = NCCC[C@H](N)C(=O)O; Dab = NCC[C@H](N)C(=O)O; Aib = CC(C)(N)C(=O)O", "data": [{"biological_target": "Recombinant human IL-1β (BioLegend 579404) (human, UniProt P01584 117-269)", "test": "cell-based or functional assay", "units": {"MRC5 IC50": "pM"}, "values": [{"binder": "cyclo([Bip(4'-COOH)][4Pal][Phe(4-COOH)]G[Pro(cis-4-F)][Trp(βS-Me,4-F)][Aib]EW[Aib][Ala(pyrimidin-5-yl)]Q[Dab]G[dProc3CH2Pyrim]) (SMILES C[C@@H](c1c[nH]c2cccc(F)c12)[C@@H]1NC(=O)[C@@H]2C[C@H](F)CN2C(=O)CNC(=O)[C@H](Cc2ccc(C(=O)O)cc2)NC(=O)[C@H](Cc2ccncc2)NC(=O)[C@H](Cc2ccc(-c3ccc(C(=O)O)cc3)cc2)NC(=O)[C@H]2[C@@H](Cc3cncnc3)CCN2C(=O)CNC(=O)[C@H](CCN)NC(=O)[C@H](CCC(N)=O)NC(=O)[C@H](Cc2cncnc2)NC(=O)C(C)(C)NC(=O)[C@H](Cc2c[nH]c3ccccc23)NC(=O)[C@H](CCC(=O)O)NC(=O)C(C)(C)NC1=O)", "note": "[SEQ ID NO: 71]", "MRC5 IC50": 58}, {"binder": "cyclo([Bip(4'-COOH)][4Pal][Phe(4-COOH)]G[Pro(cis-4-F)][Trp(βS-Me,4-F)][Aib]EW[Aib][3Pal]Q[Dab]G[dPro(4R-Bzl(4-F))])", "note": "[SEQ ID NO: 72]", "MRC5 IC50": 27}, {"binder": "cyclo([Bip(4'-COOH)][4Pal][Phe(4-COOH)]G[Pro(cis-4-F)][Trp(βS-Me,4-F)][Aib]EW[Aib][2Pal]Q[Dab]G[dPro(4R-Bzl(4-F))]) (SMILES C[C@@H](c1c[nH]c2cccc(F)c12)[C@@H]1NC(=O)[C@@H]2C[C@H](F)CN2C(=O)CNC(=O)[C@H](Cc2ccc(C(=O)O)cc2)NC(=O)[C@H](Cc2ccncc2)NC(=O)[C@H](Cc2ccc(-c3ccc(C(=O)O)cc3)cc2)NC(=O)[C@H]2C[C@@H](Cc3ccc(F)cc3)CN2C(=O)CNC(=O)[C@H](CCN)NC(=O)[C@H](CCC(N)=O)NC(=O)[C@H](Cc2ccccn2)NC(=O)C(C)(C)NC(=O)[C@H](Cc2c[nH]c3ccccc23)NC(=O)[C@H](CCC(=O)O)NC(=O)C(C)(C)NC1=O)", "note": "[SEQ ID NO: 73]", "MRC5 IC50": 31}, {"binder": "cyclo([TyrEtNAc][4Pal][Phe(4-COOH)][Pro(cis-4-F)][Trp(βS-Me,4-F)][Aib]EW[Aib]RQ[Dab]G[dPro(4R-Bzl(4-F))]) (SMILES CC(=O)NCCOc1ccc(C[C@@H]2NC(=O)[C@H]3C[C@@H](Cc4ccc(F)cc4)CN3C(=O)CNC(=O)[C@H](CCN)NC(=O)[C@H](CCC(N)=O)NC(=O)[C@H](CCCNC(=N)N)NC(=O)C(C)(C)NC(=O)[C@H](Cc3c[nH]c4ccccc34)NC(=O)[C@H](CCC(=O)O)NC(=O)C(C)(C)NC(=O)[C@H]([C@@H](C)c3c[nH]c4cccc(F)c34)NC(=O)[C@@H]3C[C@H](F)CN3C(=O)[C@H](Cc3ccc(C(=O)O)cc3)NC(=O)[C@H](Cc3ccncc3)NC2=O)cc1)", "note": "[SEQ ID NO: 74]", "MRC5 IC50": 72}, {"binder": "cyclo([Bip(4'-COOH)][4Pal][Phe(4-COOH)]G[Pro(cis-4-F)][Trp(βS-Me,4-F)][Aib]EW[Aib][Ala(pyrimidin-5-yl)]QRG[dPro(4R-Bzl(4-F))]) (SMILES C[C@@H](c1c[nH]c2cccc(F)c12)[C@@H]1NC(=O)[C@@H]2C[C@H](F)CN2C(=O)CNC(=O)[C@H](Cc2ccc(C(=O)O)cc2)NC(=O)[C@H](Cc2ccncc2)NC(=O)[C@H](Cc2ccc(-c3ccc(C(=O)O)cc3)cc2)NC(=O)[C@H]2C[C@@H](Cc3ccc(F)cc3)CN2C(=O)CNC(=O)[C@H](CCCNC(=N)N)NC(=O)[C@H](CCC(N)=O)NC(=O)[C@H](Cc2cncnc2)NC(=O)C(C)(C)NC(=O)[C@H](Cc2c[nH]c3ccccc23)NC(=O)[C@H](CCC(=O)O)NC(=O)C(C)(C)NC1=O)", "note": "[SEQ ID NO: 75]", "MRC5 IC50": 56}, {"binder": "cyclo([Bip(4'-COOH)][4Pal][Phe(4-COOH)]G[Pro(cis-4-F)][Trp(βS-Me,4-F)][Aib]EW[Aib][4Pal]QRG[dPro(4R-Bzl(4-F))]) (SMILES C[C@@H](c1c[nH]c2cccc(F)c12)[C@@H]1NC(=O)[C@@H]2C[C@H](F)CN2C(=O)CNC(=O)[C@H](Cc2ccc(C(=O)O)cc2)NC(=O)[C@H](Cc2ccncc2)NC(=O)[C@H](Cc2ccc(-c3ccc(C(=O)O)cc3)cc2)NC(=O)[C@H]2C[C@@H](Cc3ccc(F)cc3)CN2C(=O)CNC(=O)[C@H](CCCNC(=N)N)NC(=O)[C@H](CCC(N)=O)NC(=O)[C@H](Cc2ccncc2)NC(=O)C(C)(C)NC(=O)[C@H](Cc2c[nH]c3ccccc23)NC(=O)[C@H](CCC(=O)O)NC(=O)C(C)(C)NC1=O)", "note": "[SEQ ID NO: 76]", "MRC5 IC50": 59}, {"binder": "cyclo([TyrEtNAc][4Pal][Phe(4-COOH)][Pro(cis-4-F)][Trp(βS-Me,4-F)][Aib]EW[Aib][Ala(pyrimidin-5-yl)]QSG[dProc3Bn]) (SMILES CC(=O)NCCOc1ccc(C[C@@H]2NC(=O)[C@H]3[C@@H](Cc4ccccc4)CCN3C(=O)CNC(=O)[C@H](CO)NC(=O)[C@H](CCC(N)=O)NC(=O)[C@H](Cc3cncnc3)NC(=O)C(C)(C)NC(=O)[C@H](Cc3c[nH]c4ccccc34)NC(=O)[C@H](CCC(=O)O)NC(=O)C(C)(C)NC(=O)[C@H]([C@@H](C)c3c[nH]c4cccc(F)c34)NC(=O)[C@@H]3C[C@H](F)CN3C(=O)[C@H](Cc3ccc(C(=O)O)cc3)NC(=O)[C@H](Cc3ccncc3)NC2=O)cc1)", "note": "[SEQ ID NO: 77]", "MRC5 IC50": 79}, {"binder": "cyclo([TyrEtNAc][4Pal][Phe(4-COOH)][Pro(cis-4-F)][Trp(βS-Me,4-F)][Aib]EW[Aib][Ala(pyrimidin-5-yl)]Q[Dab]G[dProc3Bn]) (SMILES CC(=O)NCCOc1ccc(C[C@@H]2NC(=O)[C@H]3[C@@H](Cc4ccccc4)CCN3C(=O)CNC(=O)[C@H](CCN)NC(=O)[C@H](CCC(N)=O)NC(=O)[C@H](Cc3cncnc3)NC(=O)C(C)(C)NC(=O)[C@H](Cc3c[nH]c4ccccc34)NC(=O)[C@H](CCC(=O)O)NC(=O)C(C)(C)NC(=O)[C@H]([C@@H](C)c3c[nH]c4cccc(F)c34)NC(=O)[C@@H]3C[C@H](F)CN3C(=O)[C@H](Cc3ccc(C(=O)O)cc3)NC(=O)[C@H](Cc3ccncc3)NC2=O)cc1)", "note": "[SEQ ID NO: 78]", "MRC5 IC50": 36}, {"binder": "cyclo([TyrEtNAc][4Pal][Phe(4-COOH)][Pro(cis-4-F)][Trp(βS-Me,4-F)][Aib]EW[Aib][Ala(pyrimidin-5-yl)]QSG[dProc4Bn]) (SMILES CC(=O)NCCOc1ccc(C[C@@H]2NC(=O)[C@H]3C[C@@H](Cc4ccccc4)CN3C(=O)CNC(=O)[C@H](CO)NC(=O)[C@H](CCC(N)=O)NC(=O)[C@H](Cc3cncnc3)NC(=O)C(C)(C)NC(=O)[C@H](Cc3c[nH]c4ccccc34)NC(=O)[C@H](CCC(=O)O)NC(=O)C(C)(C)NC(=O)[C@H]([C@@H](C)c3c[nH]c4cccc(F)c34)NC(=O)[C@@H]3C[C@H](F)CN3C(=O)[C@H](Cc3ccc(C(=O)O)cc3)NC(=O)[C@H](Cc3ccncc3)NC2=O)cc1)", "note": "[SEQ ID NO: 79]", "MRC5 IC50": 59}, {"binder": "cyclo([Bip(4'-COOH)][4Pal][Phe(4-COOH)]G[Pro(cis-4-F)][Trp(βS-Me,4-F)][Aib]EW[Aib][Ala(pyrimidin-5-yl)]Q[Orn]G[dPro(4R-Bzl(4-F))]) (SMILES C[C@@H](c1c[nH]c2cccc(F)c12)[C@@H]1NC(=O)[C@@H]2C[C@H](F)CN2C(=O)CNC(=O)[C@H](Cc2ccc(C(=O)O)cc2)NC(=O)[C@H](Cc2ccncc2)NC(=O)[C@H](Cc2ccc(-c3ccc(C(=O)O)cc3)cc2)NC(=O)[C@H]2C[C@@H](Cc3ccc(F)cc3)CN2C(=O)CNC(=O)[C@H](CCCN)NC(=O)[C@H](CCC(N)=O)NC(=O)[C@H](Cc2cncnc2)NC(=O)C(C)(C)NC(=O)[C@H](Cc2c[nH]c3ccccc23)NC(=O)[C@H](CCC(=O)O)NC(=O)C(C)(C)NC1=O)", "note": "[SEQ ID NO: 8]", "MRC5 IC50": 26}, {"binder": "cyclo([TyrEtNAc][4Pal][Phe(4-COOH)][Pro(cis-4-F)][Trp(βS-Me,4-F)][Aib]EW[Aib][Ala(pyrimidin-5-yl)]Q[Dab]G[dProc4Bn]) (SMILES CC(=O)NCCOc1ccc(C[C@@H]2NC(=O)[C@H]3C[C@@H](Cc4ccccc4)CN3C(=O)CNC(=O)[C@H](CCN)NC(=O)[C@H](CCC(N)=O)NC(=O)[C@H](Cc3cncnc3)NC(=O)C(C)(C)NC(=O)[C@H](Cc3c[nH]c4ccccc34)NC(=O)[C@H](CCC(=O)O)NC(=O)C(C)(C)NC(=O)[C@H]([C@@H](C)c3c[nH]c4cccc(F)c34)NC(=O)[C@@H]3C[C@H](F)CN3C(=O)[C@H](Cc3ccc(C(=O)O)cc3)NC(=O)[C@H](Cc3ccncc3)NC2=O)cc1)", "note": "[SEQ ID NO: 80]", "MRC5 IC50": 48}, {"binder": "cyclo([Phe(4-(5-CO2H-2-pyrimidyl))][4Pal][Phe(4-COOH)]G[Pro(cis-4-F)][Trp(βS-Me,4-F)][Aib]EW[3Aminoazetidine3carboxyl][4Pal]Q[Dab]G[dPro(4R-Bzl(4-F))]) (SMILES C[C@@H](c1c[nH]c2cccc(F)c12)[C@@H]1NC(=O)[C@@H]2C[C@H](F)CN2C(=O)CNC(=O)[C@H](Cc2ccc(C(=O)O)cc2)NC(=O)[C@H](Cc2ccncc2)NC(=O)[C@H](Cc2ccc(-c3ncc(C(=O)O)cn3)cc2)NC(=O)[C@H]2C[C@@H](Cc3ccc(F)cc3)CN2C(=O)CNC(=O)[C@H](CCN)NC(=O)[C@H](CCC(N)=O)NC(=O)[C@H](Cc2ccncc2)NC(=O)C2(CNC2)NC(=O)[C@H](Cc2c[nH]c3ccccc23)NC(=O)[C@H](CCC(=O)O)NC(=O)C(C)(C)NC1=O)", "note": "[SEQ ID NO: 81]", "MRC5 IC50": 49}, {"binder": "cyclo([Phe(4-(5-CO2H-2-pyrimidyl))][Ala(1-bicyclo(1.1.1)pentyl)][Phe(4-COOH)]G[Pro(cis-4-F)][Trp(βS-Me,4-F)][Aib]EW[Aib][Ala(pyrimidin-5-yl)]Q[Dab]G[dPro(4R-Bzl(4-F))]) (SMILES C[C@@H](c1c[nH]c2cccc(F)c12)[C@@H]1NC(=O)[C@@H]2C[C@H](F)CN2C(=O)CNC(=O)[C@H](Cc2ccc(C(=O)O)cc2)NC(=O)[C@H](CC23CC(C2)C3)NC(=O)[C@H](Cc2ccc(-c3ncc(C(=O)O)cn3)cc2)NC(=O)[C@H]2C[C@@H](Cc3ccc(F)cc3)CN2C(=O)CNC(=O)[C@H](CCN)NC(=O)[C@H](CCC(N)=O)NC(=O)[C@H](Cc2cncnc2)NC(=O)C(C)(C)NC(=O)[C@H](Cc2c[nH]c3ccccc23)NC(=O)[C@H](CCC(=O)O)NC(=O)C(C)(C)NC1=O)", "note": "[SEQ ID NO: 82]", "MRC5 IC50": 54}]}]}
